# From the supplement of paper PMC10065799, “High-throughput profiling of sequence recognition by tyrosine kinases and SH2 domains using bacterial peptide display” (eLife, 2023)
# Tested on: c-Src
# Assay: phosphorylation enrichment, bacterial display (enrichment ratio); higher = better substrate or ligand; peptides without Tyr show the background
# 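Also: 11-residue human phosphosite peptides and single-mutation variants displayed on the E. coli surface, counted by deep sequencing, each peptide's frequency after selection divided by its frequency in the unselected input library; frequency after pTyr selection over input frequency; kinase dosed for 20-30% of maximal phosphorylation in three min.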
row,Sequence,phosphorylation enrichment
1,SAEKAYHEQLS [TUBA1A_Y282],0.369
2,SHISGYATLRR [RAPH1_Y1226],0.382
3,KCLAVYQAGAR [APOE_Y180_R176C],2.45
4,VLTSKHRGGGG [HBA1_Y141_Y141H],0.344
5,QTLTDYDTRFY [CSNK2A3_Y131_I133T],0.428
6,MKDLTYASLCF [ALOX5_Y446],5.59
7,SWSTSYSGFRF [NKAPL_Y91_YF],1.69
8,EKRDAYVSCLN [GSR_Y150_R153C],0.514
9,ARVANYQRDGP [CAT_Y386],0.545
10,GVLKEYGVKVL [CPS1_Y529],0.424
11,EADRKYEEVAG [TPM3_Y163_R168G],0.452
12,GDAMLYYPSVS [GPR143_Y177_A173D],2.22
13,RQNRFYDAKVR [FKBP6_Y188],1.18
14,NRKGKYFNVER [ANAPC4_Y469],0.487
15,VFAPDFIAGVS [NOB1_Y366_Y366F],0.501
16,GIVEDYRPTFF [ACVRL1_Y421_P424T_YF],0.45
17,QRIFQYIRSRF [DYRK1B_Y273_Q275R_YF],1.36

row,Sequence,phosphorylation enrichment
1,ILGRFYETGSI [PAX2_Y73_YF],0.414
2,GFIISYREEEQ,0.399
3,IRTIDYRFTVW [IDS_Y497_YF],0.39
4,KEAQVYQAFKL [SUCLG2_Y343],7.32
5,KDQGIYEDFVE [MYL6_Y86_T85I_YF],2.84
6,FSMGCYEISLE [HMGCL_Y198_G203E_YF],1.51
7,SRGSSYNSIPK [FLNC_Y2625_S2626N],0.486
8,ATHSRYRLNDY [CLDN14_Y233_G232R],0.417
9,SIKDKYVTVLF [KCNH2_Y611_A614V_YF],0.361
10,ENGPFYASFPP [GDAP2_Y488_T489A_YF],7.57
11,ECKLFYSRKEG [PTPN11_Y263_L262F],0.465
12,STSKTYVISQT [RBBP6_Y87_R91Q],0.466
13,MVSLFYGTAIF [OR10C1_Y251_L255I],1.92
14,RLLVVYPSTQR [HBB_Y36_W38S],0.646
15,LGRTVYADCLA [ABCA4_Y2063_L2060R],0.903
16,VTRKEYFIFLE [CAMKV_Y95],0.695

# Molecular target: Jak2 (UniProt O60674)
# Assay: as above
# Sequence of Jak2 (O60674 whole entry, looked up): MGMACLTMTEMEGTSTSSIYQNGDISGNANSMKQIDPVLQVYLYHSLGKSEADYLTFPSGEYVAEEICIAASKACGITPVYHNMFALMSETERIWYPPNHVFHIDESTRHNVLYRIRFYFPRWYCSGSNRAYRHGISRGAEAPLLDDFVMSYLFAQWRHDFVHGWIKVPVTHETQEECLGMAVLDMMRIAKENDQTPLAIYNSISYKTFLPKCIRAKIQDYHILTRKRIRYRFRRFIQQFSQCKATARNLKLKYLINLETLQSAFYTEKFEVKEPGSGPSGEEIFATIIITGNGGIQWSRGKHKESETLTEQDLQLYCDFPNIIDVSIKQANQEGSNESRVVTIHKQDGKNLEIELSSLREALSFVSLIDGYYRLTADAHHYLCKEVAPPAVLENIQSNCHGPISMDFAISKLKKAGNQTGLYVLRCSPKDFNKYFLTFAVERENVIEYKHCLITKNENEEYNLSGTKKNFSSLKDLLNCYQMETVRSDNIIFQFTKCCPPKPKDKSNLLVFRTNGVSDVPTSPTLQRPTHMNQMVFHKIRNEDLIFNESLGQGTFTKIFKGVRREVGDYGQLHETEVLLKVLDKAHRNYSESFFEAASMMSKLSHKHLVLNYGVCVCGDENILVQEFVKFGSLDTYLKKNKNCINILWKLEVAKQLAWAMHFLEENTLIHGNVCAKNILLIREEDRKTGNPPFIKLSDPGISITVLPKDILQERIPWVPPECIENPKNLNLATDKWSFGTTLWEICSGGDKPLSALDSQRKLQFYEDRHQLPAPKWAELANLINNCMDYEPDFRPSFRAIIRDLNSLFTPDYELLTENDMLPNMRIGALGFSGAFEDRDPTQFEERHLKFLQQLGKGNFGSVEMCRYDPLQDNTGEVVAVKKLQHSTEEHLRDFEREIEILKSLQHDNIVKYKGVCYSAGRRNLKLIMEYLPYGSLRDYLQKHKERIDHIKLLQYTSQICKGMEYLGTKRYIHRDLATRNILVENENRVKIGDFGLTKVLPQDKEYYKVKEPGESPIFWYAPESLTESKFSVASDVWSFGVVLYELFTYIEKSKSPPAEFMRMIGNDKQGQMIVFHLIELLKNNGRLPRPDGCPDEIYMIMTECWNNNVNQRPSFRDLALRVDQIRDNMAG
row,Sequence,phosphorylation enrichment
1,SAEKAYHEQLS [TUBA1A_Y282],0.619
2,SHISGYATLRR [RAPH1_Y1226],0.628
3,KCLAVYQAGAR [APOE_Y180_R176C],0.744
4,VLTSKHRGGGG [HBA1_Y141_Y141H],0.332
5,QTLTDYDTRFY [CSNK2A3_Y131_I133T],1.06
6,MKDLTYASLCF [ALOX5_Y446],1.01
7,SWSTSYSGFRF [NKAPL_Y91_YF],0.821
8,EKRDAYVSCLN [GSR_Y150_R153C],0.726
9,ARVANYQRDGP [CAT_Y386],0.486
10,GVLKEYGVKVL [CPS1_Y529],0.391
11,EADRKYEEVAG [TPM3_Y163_R168G],0.998
12,GDAMLYYPSVS [GPR143_Y177_A173D],3.08
13,RQNRFYDAKVR [FKBP6_Y188],0.81
14,NRKGKYFNVER [ANAPC4_Y469],0.379
15,VFAPDFIAGVS [NOB1_Y366_Y366F],0.775
16,GIVEDYRPTFF [ACVRL1_Y421_P424T_YF],0.838
17,QRIFQYIRSRF [DYRK1B_Y273_Q275R_YF],1.24

row,Sequence,phosphorylation enrichment
1,ILGRFYETGSI [PAX2_Y73_YF],0.566
2,GFIISYREEEQ,1.34
3,IRTIDYRFTVW [IDS_Y497_YF],1.09
4,KEAQVYQAFKL [SUCLG2_Y343],0.801
5,KDQGIYEDFVE [MYL6_Y86_T85I_YF],1.3
6,FSMGCYEISLE [HMGCL_Y198_G203E_YF],1.31
7,SRGSSYNSIPK [FLNC_Y2625_S2626N],0.587
8,ATHSRYRLNDY [CLDN14_Y233_G232R],0.406
9,SIKDKYVTVLF [KCNH2_Y611_A614V_YF],0.743
10,ENGPFYASFPP [GDAP2_Y488_T489A_YF],0.951
11,ECKLFYSRKEG [PTPN11_Y263_L262F],0.685
12,STSKTYVISQT [RBBP6_Y87_R91Q],0.559
13,MVSLFYGTAIF [OR10C1_Y251_L255I],1.4
14,RLLVVYPSTQR [HBB_Y36_W38S],1.04
15,LGRTVYADCLA [ABCA4_Y2063_L2060R],1.76
16,VTRKEYFIFLE [CAMKV_Y95],1.01

# Tested on: AncSZ
# Assay: as above
row,Sequence,phosphorylation enrichment
1,SAEKAYHEQLS [TUBA1A_Y282],0.558
2,SHISGYATLRR [RAPH1_Y1226],0.941
3,KCLAVYQAGAR [APOE_Y180_R176C],0.737
4,VLTSKHRGGGG [HBA1_Y141_Y141H],0.486
5,QTLTDYDTRFY [CSNK2A3_Y131_I133T],1.01
6,MKDLTYASLCF [ALOX5_Y446],1.09
7,SWSTSYSGFRF [NKAPL_Y91_YF],1.17
8,EKRDAYVSCLN [GSR_Y150_R153C],0.925
9,ARVANYQRDGP [CAT_Y386],0.785
10,GVLKEYGVKVL [CPS1_Y529],0.52
11,EADRKYEEVAG [TPM3_Y163_R168G],1.12
12,GDAMLYYPSVS [GPR143_Y177_A173D],0.95
13,RQNRFYDAKVR [FKBP6_Y188],0.687
14,NRKGKYFNVER [ANAPC4_Y469],0.478
15,VFAPDFIAGVS [NOB1_Y366_Y366F],0.69
16,GIVEDYRPTFF [ACVRL1_Y421_P424T_YF],0.897
17,QRIFQYIRSRF [DYRK1B_Y273_Q275R_YF],1.07

row,Sequence,phosphorylation enrichment
1,ILGRFYETGSI [PAX2_Y73_YF],0.737
2,GFIISYREEEQ,1.41
3,IRTIDYRFTVW [IDS_Y497_YF],1.11
4,KEAQVYQAFKL [SUCLG2_Y343],1.1
5,KDQGIYEDFVE [MYL6_Y86_T85I_YF],1.45
6,FSMGCYEISLE [HMGCL_Y198_G203E_YF],2.14
7,SRGSSYNSIPK [FLNC_Y2625_S2626N],0.53
8,ATHSRYRLNDY [CLDN14_Y233_G232R],0.562
9,SIKDKYVTVLF [KCNH2_Y611_A614V_YF],0.763
10,ENGPFYASFPP [GDAP2_Y488_T489A_YF],0.819
11,ECKLFYSRKEG [PTPN11_Y263_L262F],1.08
12,STSKTYVISQT [RBBP6_Y87_R91Q],0.591
13,MVSLFYGTAIF [OR10C1_Y251_L255I],1.41
14,RLLVVYPSTQR [HBB_Y36_W38S],1.19
15,LGRTVYADCLA [ABCA4_Y2063_L2060R],0.983
16,VTRKEYFIFLE [CAMKV_Y95],1.11

# Molecular target: Fyn (UniProt P06241)
# Assay: as above
# Sequence of Fyn (P06241 whole entry, looked up): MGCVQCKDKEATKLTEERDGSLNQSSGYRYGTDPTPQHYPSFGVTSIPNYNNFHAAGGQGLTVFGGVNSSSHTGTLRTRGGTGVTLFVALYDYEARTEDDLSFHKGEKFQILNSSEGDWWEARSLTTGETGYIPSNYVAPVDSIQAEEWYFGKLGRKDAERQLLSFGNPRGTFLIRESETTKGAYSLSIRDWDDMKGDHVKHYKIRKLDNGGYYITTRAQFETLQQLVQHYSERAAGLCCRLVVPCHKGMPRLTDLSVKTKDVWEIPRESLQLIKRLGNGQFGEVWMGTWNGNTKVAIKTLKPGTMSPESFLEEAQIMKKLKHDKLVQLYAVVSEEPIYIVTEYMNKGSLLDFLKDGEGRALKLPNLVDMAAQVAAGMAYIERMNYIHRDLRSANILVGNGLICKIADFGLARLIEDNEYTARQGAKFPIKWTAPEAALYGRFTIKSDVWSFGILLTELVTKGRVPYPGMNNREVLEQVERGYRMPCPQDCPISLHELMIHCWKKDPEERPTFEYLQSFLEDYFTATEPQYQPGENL
row,Sequence,phosphorylation enrichment
1,SAEKAYHEQLS [TUBA1A_Y282],0.428
2,SHISGYATLRR [RAPH1_Y1226],0.392
3,KCLAVYQAGAR [APOE_Y180_R176C],0.646
4,VLTSKHRGGGG [HBA1_Y141_Y141H],0.527
5,QTLTDYDTRFY [CSNK2A3_Y131_I133T],0.556
6,MKDLTYASLCF [ALOX5_Y446],6.75
7,SWSTSYSGFRF [NKAPL_Y91_YF],0.739
8,EKRDAYVSCLN [GSR_Y150_R153C],0.481
9,ARVANYQRDGP [CAT_Y386],0.436
10,GVLKEYGVKVL [CPS1_Y529],0.378
11,EADRKYEEVAG [TPM3_Y163_R168G],0.508
12,GDAMLYYPSVS [GPR143_Y177_A173D],0.957
13,RQNRFYDAKVR [FKBP6_Y188],0.427
14,NRKGKYFNVER [ANAPC4_Y469],0.386
15,VFAPDFIAGVS [NOB1_Y366_Y366F],0.436
16,GIVEDYRPTFF [ACVRL1_Y421_P424T_YF],0.394
17,QRIFQYIRSRF [DYRK1B_Y273_Q275R_YF],0.837

row,Sequence,phosphorylation enrichment
1,ILGRFYETGSI [PAX2_Y73_YF],0.5
2,GFIISYREEEQ,0.488
3,IRTIDYRFTVW [IDS_Y497_YF],0.423
4,KEAQVYQAFKL [SUCLG2_Y343],11.3
5,KDQGIYEDFVE [MYL6_Y86_T85I_YF],2.6
6,FSMGCYEISLE [HMGCL_Y198_G203E_YF],0.898
7,SRGSSYNSIPK [FLNC_Y2625_S2626N],0.297
8,ATHSRYRLNDY [CLDN14_Y233_G232R],0.442
9,SIKDKYVTVLF [KCNH2_Y611_A614V_YF],0.442
10,ENGPFYASFPP [GDAP2_Y488_T489A_YF],9.94
11,ECKLFYSRKEG [PTPN11_Y263_L262F],0.401
12,STSKTYVISQT [RBBP6_Y87_R91Q],0.446
13,MVSLFYGTAIF [OR10C1_Y251_L255I],1.1
14,RLLVVYPSTQR [HBB_Y36_W38S],0.802
15,LGRTVYADCLA [ABCA4_Y2063_L2060R],0.902
16,VTRKEYFIFLE [CAMKV_Y95],0.481
